Measured values from patent US20190077849A1 (US Dept. of Health and Human Services, published 2019).
Residue numbers refer to the chain shown, from its start. Names and notes keep the numbering of the source. Values joined by “and” are separate entries in the source; they are usually repeats but may differ in a detail not shown here. Identical values can stand only once. Like-named read-outs stand apart in the source and are kept apart here.

Legend:
[1] = target: HIV-1 Env of PVO.04.SG3 pseudovirus (clade B) (HIV-1); test: cell-based or functional assay
[2] = target: HIV-1 Env of ZM106.9.SG3 pseudovirus (clade C) (HIV-1); test: cell-based or functional assay
[3] = target: HIV-1 Env of TH966.8.SG3 pseudovirus (clade AE) (HIV-1); test: cell-based or functional assay
[4] = target: HIV-1 Env of KER2008.12.SG3 pseudovirus (clade A) (HIV-1); test: cell-based or functional assay
[5] = target: HIV-1 Env of CNE31.SG3 pseudovirus (clade C) (HIV-1); test: cell-based or functional assay
[6] = target: T1, HIV-1 Env of 6095.V1.C10.SG3 pseudovirus (clade ACD) (HIV-1); test: cell-based or functional assay
[7] = target: HIV-1 Env of ZM215.8.SG3 pseudovirus (clade C) (HIV-1); test: cell-based or functional assay
[8] = target: HIV-1 Env of PVO.04.SG3 pseudovirus (clade B) (HIV-1); test: cell-based or functional assay; remark: listed apart in the source
[9] = target: HIV-1 Env of ZM106.9.SG3 pseudovirus (clade C) (HIV-1); test: cell-based or functional assay; remark: listed apart in the source
[10] = target: HIV-1 Env of 6101.10.SG3 pseudovirus (clade B) (HIV-1); test: cell-based or functional assay
[11] = target: HIV-1 Env of TH966.8.SG3 pseudovirus (clade AE) (HIV-1); test: cell-based or functional assay; remark: listed apart in the source
[12] = target: HIV-1 Env of KER2008.12.SG3 pseudovirus (clade A) (HIV-1); test: cell-based or functional assay; remark: listed apart in the source
[13] = target: T2, HIV-1 Env of YU2.DG.SG3 pseudovirus (clade B) (HIV-1, UniProt P35961 32-843); test: cell-based or functional assay
[14] = target: HIV-1 Env of CNE31.SG3 pseudovirus (clade C) (HIV-1); test: cell-based or functional assay; remark: listed apart in the source
[15] = target: T1, HIV-1 Env of 6095.V1.C10.SG3 …; test: cell-based or functional assay; remark: listed apart in the source
[16] = target: HIV-1 Env of ZM215.8.SG3 pseudovirus (clade C) (HIV-1); test: cell-based or functional assay; remark: listed apart in the source
[17] = target: HIV-1 Env of PVO.04.SG3 pseudovirus (clade B) (HIV-1); test: cell-based or functional assay; remark: listed apart in the source
[18] = target: HIV-1 Env of ZM106.9.SG3 pseudovirus (clade C) (HIV-1); test: cell-based or functional assay; remark: listed apart in the source
[19] = target: HIV-1 Env of 6101.10.SG3 pseudovirus (clade B) (HIV-1); test: cell-based or functional assay; remark: listed apart in the source
[20] = target: HIV-1 Env of TH966.8.SG3 pseudovirus (clade AE) (HIV-1); test: cell-based or functional assay; remark: listed apart in the source
[21] = target: HIV-1 Env of KER2008.12.SG3 pseudovirus (clade A) (HIV-1); test: cell-based or functional assay; remark: listed apart in the source
[22] = target: T2, HIV-1 Env of YU2.DG.SG3 pseudovirus …; test: cell-based or functional assay; remark: listed apart in the source
[23] = target: HIV-1 Env of CNE31.SG3 pseudovirus (clade C) (HIV-1); test: cell-based or functional assay; remark: listed apart in the source
[24] = target: T3, MPER peptide (HIV-1); test: MPER peptide binding assay (method not given)
T3 construct: also called gp41 MPER peptide

B1: 10E8 variant 4 (H6-511-4mut VH + rL3-6mut VL) (antibody, V domains shown)
VH: EVRLVESGGGLVKPGGSLRLSCSASGFDFDNAWMTWVRQPPGKGLEWVGRITGPGEGWSVDYAESVKGRFTISRDNTKNTLYLEMNNVRTEDTGYYFCARTGKYYDFWSGYPPGEEYFQDWGQGTLVIVSS
VL: ASELTQDPAVSVALKQTVTITCRGDSLRSHYASWYQKKPGQAPVLLFYGKNNRPSGIPDRFSGSASGNRASLTITGAQAEDEADYYCSSRDKSGSRLSVFGGGTKLTVL
[1]
  IC50, pseudovirus neutralization: 2.39 µg/mL and 1.13 µg/mL
[2]
  IC50, pseudovirus neutralization: > 50 µg/mL
[3]
  IC50, pseudovirus neutralization: 0.036 µg/mL and 0.021 µg/mL
[4]
  IC50, pseudovirus neutralization: > 50 µg/mL
[5]
  IC50, pseudovirus neutralization: 1.16 µg/mL
[6]
  IC50, pseudovirus neutralization: 0.004 µg/mL
  IC80, pseudovirus neutralization: 0.015 µg/mL
[7]
  IC50, pseudovirus neutralization: 0.122 µg/mL
  IC80, pseudovirus neutralization: 0.502 µg/mL
[8]
  IC50, pseudovirus neutralization: 3.07 µg/mL
  IC80, pseudovirus neutralization: 11.9 µg/mL
[9]
  IC50, pseudovirus neutralization: > 50 µg/mL
  IC80, pseudovirus neutralization: > 50 µg/mL
[10]
  IC50, pseudovirus neutralization: 0.052 µg/mL
  IC80, pseudovirus neutralization: 0.263 µg/mL
[11]
  IC50, pseudovirus neutralization: 0.056 µg/mL
  IC80, pseudovirus neutralization: 0.291 µg/mL
[12]
  IC50, pseudovirus neutralization: > 50 µg/mL
  IC80, pseudovirus neutralization: > 50 µg/mL
[13]
  IC50, pseudovirus neutralization: 1.49 µg/mL
  IC80, pseudovirus neutralization: 6.33 µg/mL
[14]
  IC50, pseudovirus neutralization: 1.32 µg/mL
  IC80, pseudovirus neutralization: 4.04 µg/mL
[15]
  IC50, pseudovirus neutralization: 0.004 µg/mL
  IC80, pseudovirus neutralization: 0.021 µg/mL
[16]
  IC50, pseudovirus neutralization: 0.042 µg/mL
  IC80, pseudovirus neutralization: 0.326 µg/mL
[17]
  IC50, pseudovirus neutralization: 0.894 µg/mL
  IC80, pseudovirus neutralization: 8 µg/mL
[18]
  IC50, pseudovirus neutralization: > 50 µg/mL
  IC80, pseudovirus neutralization: > 50 µg/mL
[19]
  IC50, pseudovirus neutralization: 0.011 µg/mL
  IC80, pseudovirus neutralization: 0.09 µg/mL
[20]
  IC50, pseudovirus neutralization: 0.026 µg/mL
  IC80, pseudovirus neutralization: 0.169 µg/mL
[21]
  IC50, pseudovirus neutralization: > 50 µg/mL
  IC80, pseudovirus neutralization: > 50 µg/mL
[22]
  IC50, pseudovirus neutralization: 0.668 µg/mL
  IC80, pseudovirus neutralization: 5.32 µg/mL
[23]
  IC50, pseudovirus neutralization: 1.74 µg/mL
  IC80, pseudovirus neutralization: 4.85 µg/mL

B2: 10E8v4-DS (VH Y100eC and VL S30C substitutions) (antibody, V domains shown)
VH: B1 VH with Y111C
VL: B1 VL with S29C
[24]
  fold tighter binding than 10E8v4: 2 fold
[15]
  IC50, pseudovirus neutralization: 0.002 µg/mL
  IC80, pseudovirus neutralization: 0.017 µg/mL
[16]
  IC50, pseudovirus neutralization: 0.208 µg/mL
  IC80, pseudovirus neutralization: 0.798 µg/mL
[17]
  IC50, pseudovirus neutralization: 2.53 µg/mL
  IC80, pseudovirus neutralization: 10.1 µg/mL
[18]
  IC50, pseudovirus neutralization: > 50 µg/mL
  IC80, pseudovirus neutralization: > 50 µg/mL
[19]
  IC50, pseudovirus neutralization: 2.41 µg/mL
  IC80, pseudovirus neutralization: 22.2 µg/mL
[20]
  IC50, pseudovirus neutralization: 0.092 µg/mL
  IC80, pseudovirus neutralization: 0.345 µg/mL
[21]
  IC50, pseudovirus neutralization: > 50 µg/mL
  IC80, pseudovirus neutralization: > 50 µg/mL
[22]
  IC50, pseudovirus neutralization: 0.275 µg/mL
  IC80, pseudovirus neutralization: 2.44 µg/mL
[23]
  IC50, pseudovirus neutralization: 2.28 µg/mL
  IC80, pseudovirus neutralization: 6.48 µg/mL

B3: 10E8v4 S100cW-DS (antibody, V domains shown)
VH: B1 VH with S109W, Y111C
VL: B1 VL with S29C
[15]
  IC50, pseudovirus neutralization: 0.002 µg/mL
  IC80, pseudovirus neutralization: 0.013 µg/mL
[16]
  IC50, pseudovirus neutralization: 0.037 µg/mL
  IC80, pseudovirus neutralization: 0.245 µg/mL
[17]
  IC50, pseudovirus neutralization: 0.331 µg/mL
  IC80, pseudovirus neutralization: 3.67 µg/mL
[18]
  IC50, pseudovirus neutralization: > 50 µg/mL
  IC80, pseudovirus neutralization: > 50 µg/mL
[19]
  IC50, pseudovirus neutralization: 1.22 µg/mL
  IC80, pseudovirus neutralization: 10.1 µg/mL
[20]
  IC50, pseudovirus neutralization: 0.019 µg/mL
  IC80, pseudovirus neutralization: 0.092 µg/mL
[21]
  IC50, pseudovirus neutralization: > 50 µg/mL
  IC80, pseudovirus neutralization: > 50 µg/mL
[22]
  IC50, pseudovirus neutralization: 0.213 µg/mL
  IC80, pseudovirus neutralization: 2.2 µg/mL
[23]
  IC50, pseudovirus neutralization: 0.806 µg/mL
  IC80, pseudovirus neutralization: 2.93 µg/mL
